Among the data in publication PMC2120623 are beta-galactosidase units values, retold here.

Holding throughout (test): two-hybrid
Assay [1] has as its target αγα chimera in pGBT9 (two-hybrid GAL4 DNA binding domain fusion) (not stated | bovine) (UniProt P17427).
Assay [2] concerns the target AP50 in pGBT9 (two-hybrid GAL4 DNA binding domain fusion) (UniProt P84092).
The target in assay [3] is AP47 in pGBT9 (two-hybrid GAL4 DNA binding domain fusion) (UniProt P35585).
Sequence of UniProt P35585 (P35585 whole entry, the tested form may be a part): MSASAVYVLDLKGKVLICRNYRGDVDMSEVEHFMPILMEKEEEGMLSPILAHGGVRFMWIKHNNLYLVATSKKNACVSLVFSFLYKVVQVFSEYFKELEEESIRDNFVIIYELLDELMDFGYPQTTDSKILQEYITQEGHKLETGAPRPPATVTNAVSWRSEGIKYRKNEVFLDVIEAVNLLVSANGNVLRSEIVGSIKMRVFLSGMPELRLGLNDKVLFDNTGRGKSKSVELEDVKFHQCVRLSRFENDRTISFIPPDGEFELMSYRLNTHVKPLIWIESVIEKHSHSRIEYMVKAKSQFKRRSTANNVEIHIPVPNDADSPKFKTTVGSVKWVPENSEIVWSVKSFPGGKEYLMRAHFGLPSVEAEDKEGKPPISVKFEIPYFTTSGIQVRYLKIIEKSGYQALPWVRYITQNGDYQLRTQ

Sequence of UniProt P17427 (P17427 whole entry, change not shown, the tested form may be a part): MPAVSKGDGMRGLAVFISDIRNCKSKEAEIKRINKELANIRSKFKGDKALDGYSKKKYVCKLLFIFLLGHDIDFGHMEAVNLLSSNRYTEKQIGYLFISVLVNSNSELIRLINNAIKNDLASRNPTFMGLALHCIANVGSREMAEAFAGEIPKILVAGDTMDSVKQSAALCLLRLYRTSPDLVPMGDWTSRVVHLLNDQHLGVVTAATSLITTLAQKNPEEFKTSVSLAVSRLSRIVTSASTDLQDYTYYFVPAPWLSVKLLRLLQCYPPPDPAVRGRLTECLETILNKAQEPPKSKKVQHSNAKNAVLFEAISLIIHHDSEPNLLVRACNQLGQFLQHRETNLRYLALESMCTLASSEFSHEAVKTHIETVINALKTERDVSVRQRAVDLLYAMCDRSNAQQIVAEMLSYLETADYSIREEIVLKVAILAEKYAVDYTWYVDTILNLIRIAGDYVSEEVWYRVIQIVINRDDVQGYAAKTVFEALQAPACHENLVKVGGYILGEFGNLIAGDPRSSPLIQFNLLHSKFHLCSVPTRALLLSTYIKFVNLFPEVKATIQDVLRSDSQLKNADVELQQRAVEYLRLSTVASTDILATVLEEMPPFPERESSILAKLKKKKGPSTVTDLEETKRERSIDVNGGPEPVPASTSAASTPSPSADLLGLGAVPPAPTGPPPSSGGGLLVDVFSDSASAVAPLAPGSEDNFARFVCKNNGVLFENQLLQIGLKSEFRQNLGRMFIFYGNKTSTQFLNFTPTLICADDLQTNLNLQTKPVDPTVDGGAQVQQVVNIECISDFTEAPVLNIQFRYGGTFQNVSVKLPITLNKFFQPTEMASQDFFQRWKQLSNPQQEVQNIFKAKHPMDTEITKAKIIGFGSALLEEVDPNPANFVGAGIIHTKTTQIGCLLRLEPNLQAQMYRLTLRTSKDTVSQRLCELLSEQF
Sequence of UniProt P84092 (P84092 whole entry, the tested form may be a part): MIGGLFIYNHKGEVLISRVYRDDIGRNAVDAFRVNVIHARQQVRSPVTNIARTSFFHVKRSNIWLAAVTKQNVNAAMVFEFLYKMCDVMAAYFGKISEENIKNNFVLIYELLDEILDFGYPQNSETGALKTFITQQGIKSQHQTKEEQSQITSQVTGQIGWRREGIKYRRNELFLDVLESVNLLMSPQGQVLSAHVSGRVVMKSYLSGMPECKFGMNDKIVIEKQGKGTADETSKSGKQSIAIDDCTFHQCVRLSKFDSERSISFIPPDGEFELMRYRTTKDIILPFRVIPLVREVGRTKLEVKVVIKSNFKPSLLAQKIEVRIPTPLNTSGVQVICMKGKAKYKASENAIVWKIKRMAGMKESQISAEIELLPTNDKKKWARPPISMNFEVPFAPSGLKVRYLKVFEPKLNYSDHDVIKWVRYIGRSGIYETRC

For the molecule “beta-adaptin in pGAD424 (two-hybrid activator fusion) (from UniProt P62944 1-937) (natural protein)”, the beta-galactosidase units in assay [1] came to 38.6 units; in assay [2] it was 102 units; in assay [3] it was 25.4 units.

B1: beta'-adaptin in pGAD424 (two-hybrid activator fusion) (natural protein)
chain: MTDSKYFTTTKKGEIFELKAELNSDKKEKKKEAVKKVIASMTVGKDVSALFPDVVNCMQTDNLELKKLVYLYLMNYAKSQPDMAIMAVNTFVKDCEDPNPLIRALAVRTMGCIRVDKITEYLCEPLRKCLKDEDPYVRKTAAVCVAKLHDINAQLVEDQGFLDTLKDLISDSNPMVVANRVAALSEIAESHPSSNLLDLKAQSINKLLTALNECTEWAQIFILDCLGNYMPKDDREAQSICERVTPRLSHANSAVVLSAVKVLMKFMEMLSKDLDYYATLLKKLAPPLVTLLSAEPEPQYVPLRNINLIVQKRPEILKHEMKVFFVKYNDPIYVKLEKLDIMIRLASQANIAQVLAELKEYATEVDVDFVRKAVRAIGRCAIKVEQSAERCVSTLLDLIQTKVNYVVQEAIVVIKDIFRKYPNKYESVIATLCENLDSLDEPEARAAMIWIVGEYAERIDNADELLESFLDGFHDESTQVQLQLLTAIVKLFLKKPTETQELVQQVLSLATQDSDNPDLRDRGYIYWRLLSTDPVAAKEVVLAEKPLISEETDLIEPTLLDELICYIGTLASVYHKPPNAFVEGGRGVVHKSLPPRTASSESTESPEAAPAGAPASDQPDVIPAQGDLLGDLLNLDLGPPVSGPPLAASSVQMGAVDLLGGGLDSLMGDEPEGIGDSNFGAPPASVAAAAPARLGAPVSSGLSDLFDLTSGVGTLSGSYVAPKAVWLPAMKAKGLEISGTFTRQVGSISMDLQLTNKALQVMTDFAIQFNRNSFGLAPAAPLQVHAPLSPNQTVEISLPLNTVGSVMKMEPLNNLQVAVKNNIDVFYFSTLYPLHVLFVEDGKMDRQMFLATWKDIPNENEAQFQIRDCPLNTEAASSKLQSSNIFTVAKRTVEGQDMLYQSLKLTNGIWVLAELRIQPGNPSFTLSLKCRAPEVSQHDIQAYETILKN
Molecule B1 displayed a beta-galactosidase units in assay [1] of 22.3 units.
